The test addresses IL-1 receptor (human) (UniProt P14778). Nature of the test: cell-based or functional assay.
Chain of UniProt P14778 (P14778 18-569): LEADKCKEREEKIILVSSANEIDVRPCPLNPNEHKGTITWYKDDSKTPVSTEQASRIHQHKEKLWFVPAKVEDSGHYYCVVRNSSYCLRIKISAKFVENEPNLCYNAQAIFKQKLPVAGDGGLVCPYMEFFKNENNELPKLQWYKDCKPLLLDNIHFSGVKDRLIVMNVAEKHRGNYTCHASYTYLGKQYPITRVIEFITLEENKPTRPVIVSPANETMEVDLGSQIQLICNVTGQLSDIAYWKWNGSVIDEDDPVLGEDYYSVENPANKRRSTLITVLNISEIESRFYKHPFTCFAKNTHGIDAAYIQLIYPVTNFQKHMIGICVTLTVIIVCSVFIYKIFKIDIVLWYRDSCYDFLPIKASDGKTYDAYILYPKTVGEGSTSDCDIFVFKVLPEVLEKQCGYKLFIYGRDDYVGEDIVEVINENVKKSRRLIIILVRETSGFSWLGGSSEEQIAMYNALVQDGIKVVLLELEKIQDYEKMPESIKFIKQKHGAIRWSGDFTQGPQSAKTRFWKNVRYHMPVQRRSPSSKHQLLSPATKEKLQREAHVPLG

“Kineret® (anakinra) (from UniProt P18510 26-177) (ligand)” yielded an IC50, inhibition of IL-1β induced production of IL-8 in human whole blood (100 pM rhIL-1β) of 53.4 pM.

These data come from US20120003226A1.
